Conditions in all cases: tags: His-tag, Abcam ab198455, labeled with RED-Tris-NTA
For series [1], the target named is T1, PHGDH (D-3-phosphoglycerate dehydrogenase) (Homo sapiens, UniProt O43175 SEQ:1-533).
T1 sequence: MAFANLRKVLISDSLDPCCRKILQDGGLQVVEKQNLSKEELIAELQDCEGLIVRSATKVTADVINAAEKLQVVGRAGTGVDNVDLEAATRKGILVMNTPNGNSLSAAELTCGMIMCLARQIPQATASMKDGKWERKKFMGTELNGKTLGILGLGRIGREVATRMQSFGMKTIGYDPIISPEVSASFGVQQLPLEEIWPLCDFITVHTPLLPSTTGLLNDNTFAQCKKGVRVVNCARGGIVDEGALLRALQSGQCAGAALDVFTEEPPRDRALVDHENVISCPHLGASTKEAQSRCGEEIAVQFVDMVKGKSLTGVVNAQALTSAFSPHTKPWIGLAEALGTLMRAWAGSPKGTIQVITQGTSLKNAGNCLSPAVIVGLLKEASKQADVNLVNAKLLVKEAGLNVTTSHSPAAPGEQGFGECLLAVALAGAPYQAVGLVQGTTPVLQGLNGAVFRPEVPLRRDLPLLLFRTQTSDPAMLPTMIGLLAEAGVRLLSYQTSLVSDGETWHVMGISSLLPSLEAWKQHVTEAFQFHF
Description: MST; high response amplitude; fitted to Kd model but no value given; 50 nM PHGDH, RNA 13-850 nM; 10 mM Tris HCl, 50 mM KCl, 0.5 mM EDTA, 0.1 mg/ml BSA, 10% glycerol. The procedure:
(§1) Data were fitted to the Kd model.
(§2) Microscale thermophoresis experiments were performed using a NanoTemper® Monolith NT.115 (NanoTemper Tenchologies, Germany) with blue and red filters. His-tagged PHGDH protein was labeled using the Monolith His-Tag labeling Kit RED-Tris-NTA 2nd generation (SKU: MO-L018), according to manufacturer's protocol (Step B, Step C). Briefly, 90 μl of PHGDH protein (200 nM) was mixed with 90 μl of dye (100 nM) and incubated for 30 min at RT. Samples were centrifuged for 10 min at 4° C. at 15.000×g and transferred into a fresh tube. RNA was brought to a concentration of 1700 nM and a serial dilution of 1:2 over 16 steps in binding buffer (10 mM Tris HCl, 50 mM KCl, 0.5 mM EDTA, 0.1 mg/ml BSA, 10% (v/v) Rnase/Dnase free glycerol) was performed. Fluorescently labeled protein was added at a final concentration of 50 nM to each tube. 16 capillaries were loaded with IRF1 3′UTR RNA (highest concentration 850 nM) and PHGDH protein (50 nM). Samples were measured with the following settings: 20% LED/excitation and medium MST power. At the final dye concentration of 25 nM, the expected fluorescence intensity at 20% LED/excitation is around 300 counts on a Monolith NT.115.

Series [2] addresses T1, PHGDH (D-3-phosphoglycerate …). Description: MST; mutation impeded binding; RNA up to 850 nM, same buffer. The protocol:
as §1, §2

Series [3] shares this target. Description: MST; low response amplitude; no AU-rich elements; RNA up to 850 nM, same buffer. The procedure: as §2

Regarding AGGAAUUGAACUUUUAAUUGCAUUUAAUAAACUGUAUGUAAAUAGUCA (ssRNA) [IRF1 3'UTR fragment 3 (Fg3)], the binding result in series [1] was “binds”.

Consider AGGAAUUGAACCCUUAAUUGCAUUUAAUAAACUGUAUGUAAAUAGUCA (ssRNA) [mutated fragment 3 (muFg3)], for which the binding result in series [2] is on record as “no binding”.

Turning to ACAUGUGCCAGCUAAGCACUUGAAAUGUGGCCAGUGCAAUA (ssRNA) [IRF1 3'UTR fragment 4 (Fg4)], in series [3], the binding result is on record as “no binding”.
